Data from IntAct's records for PubMed 19955438.

B1: 1-phosphatidylinositol 4,5-bisphosphate phosphodiesterase gamma-1 (Bos taurus (Bovine)), P08487 (parent)
chain: MAGAASPCANGCGPSAPSDAEVVHLCRSLEVGTVMTLFYSKKSQRPERKTFQVKLETRQITWSRGADKIEGAIDIREIKEIRPGKTSRDFDRYQEDPAFRPDQSHCFVILYGMEFRLKTLSLQATSEDEVNMWIRGLTWLMEDTLQAATPLQIERWLRKQFYSVDRNREDRISAKDLKNMLSQVNYRVPNMRFLRERLTDLEQRTSDITYGQFAQLYRSLMYSAQKTMDLPFLEASALRAGERPELCRVSLPEFQQFLLEYQGELWAVDRLQVQEFMLSFLRDPLREIEEPYFFLDEFVTFLFSKENSIWNSQLDEVCPDTMNNPLSHYWISSSHNTYLTGDQFSSESSLEAYARCLRMGCRCIELDCWDGPDGMPVIYHGHTLTTKIKFSDVLHTIKEHAFVASEYPVILSIEDHCSIAQQRNMAQYFKKVLGDTLLTKPVDIAADGLPSPNQLKRKILIKHKKLAEGSAYEEVPTSVMYSENDISNSIKNGILYLEDPVNHEWYPHYFVLTSSKIYYSEETSSDQGNEDEEEPKEASGSTELHSNEKWFHGKLGAGRDGRHIAERLLTEYCIETGAPDGSFLVRESETFVGDYTLSFWRNGKVQHCRIHSRQDAGTPKFFLTDNLVFDSLYDLITHYQQVPLRCNEFEMRLSEPVPQTNAHESKEWYHASLTRAQAEHMLMRVPRDGAFLVRKRNEPNSYAISFRAEGKIKHCRVQQEGQTVMLGNSEFDSLVDLISYYEKHPLYRKMKLRYPINEEALEKIGTAEPDYGALYEGRNPGFYVEANPMPTFKCAVKALFDYKAQREDELTFTKSAIIQNVEKQEGGWWRGDYGGKKQLWFPSNYVEEMVSPAALEPEREHLDENSPLGDLLRGVLDVPACQIAVRPEGKNNRLFVFSISMASVAHWSLDVAADSQEELQDWVKKIREVAQTADARLTEGKMMERRKKIALELSELVVYCRPVPFDEEKIGTERACYRDMSSFPETKAEKYVNKAKGKKFLQYNRLQLSRIYPKGQRLDSSNYDPLPMWICGSQLVALNFQTPDKPMQMNQALFLAGGHCGYVLQPSVMRDEAFDPFDKSSLRGLEPCAICIEVLGARHLPKNGRGIVCPFVEIEVAGAEYDSIKQKTEFVVDNGLNPVWPAKPFHFQISNPEFAFLRFVVYEEDMFSDQNFLAQATFPVKGLKTGYRAVPLKNNYSEGLELASLLVKIDVFPAKQENGDLSPFGGASLRERSCDASGPLFHGRAREGSFEARYQQPFEDFRISQEHLADHFDGRDRRTPRRTRVNGDNRL

Variants of: B1
Conditions: with itk_mouse Itk

Variant | effect of a mutation on the interaction
R748A;K751A | decreasing interaction
E709A;K711A | disrupting interaction
K749A;R753A | decreasing interaction
